Experimental findings from patent US20240279353A1 (KIROMIC BIOPHARMA, published 2024) are described below.

One may read the EC50 as the concentration giving half of the maximal effect. Read a low EC50 as higher potency in that assay.

Holding throughout (experiment): EC50 binding assay (ELISA screening, format not stated)
(In an ELISA, binding on a coated surface is turned into a signal by an enzyme label.)

Experiment [1] concerns the target Mesothelin Isoform 1, as used in the EC50 binding assay (human) (UniProt Q13421).
The target in experiment [2] is Mesothelin Isoform 2 (IsoMSLN), as used in the EC50 binding assay (human) (UniProt Q13421).
The target in experiment [3] is T1, Mesothelin Isoform 2 (IsoMSLN), as used in the EC50 binding assay (human, UniProt Q13421 37-598).
T1 construct: also called MSLN Isoform 2; mesothelin isoform-2 polypeptide
T1 sequence (Q13421 37-606 limits assumed, form in doubt): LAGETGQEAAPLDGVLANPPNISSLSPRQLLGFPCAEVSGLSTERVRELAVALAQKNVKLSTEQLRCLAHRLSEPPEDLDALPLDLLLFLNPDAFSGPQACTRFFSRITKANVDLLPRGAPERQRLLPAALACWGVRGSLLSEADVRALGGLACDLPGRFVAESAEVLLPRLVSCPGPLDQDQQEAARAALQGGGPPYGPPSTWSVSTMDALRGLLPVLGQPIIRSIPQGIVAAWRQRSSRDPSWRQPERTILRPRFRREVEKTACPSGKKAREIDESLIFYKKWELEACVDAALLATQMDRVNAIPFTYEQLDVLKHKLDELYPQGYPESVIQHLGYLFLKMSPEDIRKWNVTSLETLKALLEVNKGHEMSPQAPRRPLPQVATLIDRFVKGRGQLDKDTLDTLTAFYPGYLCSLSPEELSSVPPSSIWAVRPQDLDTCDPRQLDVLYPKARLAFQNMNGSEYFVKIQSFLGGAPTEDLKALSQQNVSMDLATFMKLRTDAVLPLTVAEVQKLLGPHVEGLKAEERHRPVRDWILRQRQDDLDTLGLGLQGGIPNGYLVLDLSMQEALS

Sequence of Mesothelin Isoform 2 (IsoMSLN), as used in the EC50 binding assay (human) (Q13421 37-606 limits assumed, form in doubt): as above
Sequence of Mesothelin Isoform 1, as used in the EC50 binding assay (human) (Q13421 other isoform, or with tags, fused parts or gaps limits assumed): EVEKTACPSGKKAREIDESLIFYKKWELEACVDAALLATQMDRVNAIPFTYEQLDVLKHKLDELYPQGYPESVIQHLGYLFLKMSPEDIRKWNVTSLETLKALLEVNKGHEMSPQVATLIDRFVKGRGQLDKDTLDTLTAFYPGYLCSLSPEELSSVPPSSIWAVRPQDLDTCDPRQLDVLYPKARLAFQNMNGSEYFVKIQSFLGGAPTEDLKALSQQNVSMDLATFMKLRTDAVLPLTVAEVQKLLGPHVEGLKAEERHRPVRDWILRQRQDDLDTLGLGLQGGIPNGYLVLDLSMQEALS

Turning to “anti-MSLN antibody clone K1 (commercially available)”, the EC50 in experiment [1] was found to be 0.15 µg/mL; in experiment [2] it was 0.11 µg/mL.

B1: anti-IsoMSLN monoclonal antibody clone 1B6 (antibody, V domains shown)
VH: EVKLVESGGGLVKPGGSLKLSCEASGFTFSRYAMSWVRHTPEKRLAWVASITFGGDPYYPDGLKGRFTISRDNTRNILYLQMNSLRSEDTAMYYCVRHESWFAYWGQGTLVTVSA
VL: DVLMTQTPLSLPVSLGEQVSISCRSSQTIVHTDGNIYLEWYLQNPGQSPRLLIYKISNRFSGVPDRFSGSGSGTDFTLKISRVEAEDLGIYYCFQASHVPYTFGGGTKLEIK
notes: also called IB6
B1 returned an EC50 in experiment [3] of 0.073 µg/mL.
